Experimental data from patent publication US20150166643A1 (Alexion, published 2015).

What was measured:
[1] = molecular target: T1, human factor B (purified, Complement Technology A135) (human, UniProt P00751 26-764); assay: SPR (Biacore), TA106 Fab captured on anti-Fab surface, soluble factor B flowed; Chi2 0.113
T1 construct: also called fB; human complement factor B

[2] = molecular target: T1, human factor B (purified, Complement …); assay: BLI (Octet), biotinylated factor B on streptavidin biosensor, Fab at 100 nM
Experimental: (§1) Binding kinetics of TA106 and TA106 S33A Fab (CLS016) to Factor B were analyzed using a FortéBio® Octet® biosensor (FortéBio, Inc.) in a similar protocol as described previously. In one exemplary experiment, Factor B (Complement Technology) was biotinylated at a 1:10 ratio and coupled to a streptavidin biosensor at a concentration of 5 μg/mL for a loading time of 600 seconds. Biosensors were briefly dipped in 1×KB as a wash for 30 seconds. Associations with a titration series of Fab with a concentration range from 100 to 3 nM (diluted in 1×KB) were carried out for 600 seconds. Fabs were dissociated from the biosensor by immersing the biosensor in 1×KB during the 600 second dissociation phase. As depicted in FIGS. 19 and 20, both TA106 Fab and TA106-derivative S33A Fab (CLS016) bound to Factor B at various concentrations, resulting in nearly identical association and dissociation profiles. Kinetic assessments using partial local fit parameters yielded identical values for KD/kₐ/Kd at each concentration tested.

[3] = molecular target: T1, human factor B (purified, Complement …); assay: cell-based or functional assay
[4] = molecular target: T1, human factor B (purified, Complement …); assay: BLI (Octet), binding to factor B (summary table)
Experimental: as §1

[5] = molecular target: T1, human factor B (purified, Complement …); assay: SPR (Biacore), factor B coupled to the chip, free TA106 Fab 0.19-25 nM flowed; Chi2 1.58 (the text rounds to 1.2 nM)
From the text: (§2) Binding kinetics of TA106 Fab and variant S33A Fab (CLS016) were further characterized using Surface Plasmon Resonance (SPR) technology. In one exemplary experiment, both Fabs were captured on chips of a Biacore 3000 analyzer and samples of human factor B of different concentrations were flowed as the antigen over the surface to model soluble human factor B binding, using protocols recommended by the manufacturer and described previously in the instant disclosure. […] In another exemplary experiment, the affinities of both Fabs were also measured by reversing the orientation of the previous experiment. Specifically, human factor B was directly coupled to one flow cell of a CM5 chip. The second flow cell was used as a blank reference with no coupled ligand. CLS016 or TA106 Fab was then flowed on both flow cells. Concentrations between 0.19 to 25 nM were run with duplicates. The surface was regenerated between each cycle.

[6] = molecular target: T1, human factor B (purified, Complement …); assay: SPR (Biacore), factor B bound directly to the chip, free TA106 Fab flowed; Chi2 0.901
From the text: The difference in the two Biacore data sets could be explained as either that the conformation of factor B changes when binding to the surface or that not all commercial factor B is active. This later Biacore experiment (with a fixed concentration of factor B bound to the chip) removed the factor B concentration from the calculation.

[7] = molecular target: T1, human factor B (purified, Complement …); assay: BLI (Octet), biotinylated factor B on streptavidin biosensor, Fab at 25 nM
Experimental: as §1

[8] = molecular target: T1, human factor B (purified, Complement …); assay: SPR, factor B on surface, Fab flowed (summary table)
From the text: as §2

[9] = molecular target: T1, human factor B (purified, Complement …); assay: SPR (Biacore 3000), Fab captured by human Fab binder on CM5 chip, soluble human factor B 3.1-200 nM; Fab captured on chip, soluble factor B
From the text: Binding kinetics of mAbs were further characterized using Biacore's Surface Plasmon Resonance (SPR) technology (GE Healthcare, Piscataway, N.J.). For a detailed description of SPR and its applications in affinity measurement, please see Karlsson and Larsson, Antibody Engineering: Methods and Protocols, Methods in Molecular Biology (2003), 248: 389-415. In one exemplary experiment, TA106 Fab and derivative mAbs were captured on chips of a Biacore 3000 analyzer and samples of human factor B of different concentrations were flowed as the antigen over the surface to model soluble human factor B binding, using protocols recommended by the manufacturer (e.g., in the product brochure #BR-9003-31). All these referenced publications are hereby incorporated by reference in their entirety. […] Fab TA106 (Xoma, Lot#TTA1007, 20 mg/mL) was then flowed over one flow cell, followed by injections of human factor B on both flow cells. Concentrations (factor B) between 3.1-200 nM were run. The surface was regenerated between each cycle. […] The affinities of mAbs, i.e., CLS011, CLS012, and CLS013, were determined using a similar capture approach. In one exemplary experiment, human anti-Fc antibody was amine coupled to two flow cells of a CM5 chip. Each of the TA106-originated mAbs was then flowed over one flow cell, followed by injecting human factor B (3.1-200 nM) on both flow cells. […]

[10] = molecular target: T1, human factor B (purified, Complement …); assay: SPR (Biacore), human factor B directly coupled to CM5 chip, Fab flowed at 0.19-25 nM
From the text: as §2

[11] = molecular target: T1, human factor B (purified, Complement …); assay: SPR (Biacore), factor B coupled to the chip, free TA106 Fab 0.19-25 nM flowed; Chi2 1.58
From the text: as §2

T1 sequence (P00751 26-764): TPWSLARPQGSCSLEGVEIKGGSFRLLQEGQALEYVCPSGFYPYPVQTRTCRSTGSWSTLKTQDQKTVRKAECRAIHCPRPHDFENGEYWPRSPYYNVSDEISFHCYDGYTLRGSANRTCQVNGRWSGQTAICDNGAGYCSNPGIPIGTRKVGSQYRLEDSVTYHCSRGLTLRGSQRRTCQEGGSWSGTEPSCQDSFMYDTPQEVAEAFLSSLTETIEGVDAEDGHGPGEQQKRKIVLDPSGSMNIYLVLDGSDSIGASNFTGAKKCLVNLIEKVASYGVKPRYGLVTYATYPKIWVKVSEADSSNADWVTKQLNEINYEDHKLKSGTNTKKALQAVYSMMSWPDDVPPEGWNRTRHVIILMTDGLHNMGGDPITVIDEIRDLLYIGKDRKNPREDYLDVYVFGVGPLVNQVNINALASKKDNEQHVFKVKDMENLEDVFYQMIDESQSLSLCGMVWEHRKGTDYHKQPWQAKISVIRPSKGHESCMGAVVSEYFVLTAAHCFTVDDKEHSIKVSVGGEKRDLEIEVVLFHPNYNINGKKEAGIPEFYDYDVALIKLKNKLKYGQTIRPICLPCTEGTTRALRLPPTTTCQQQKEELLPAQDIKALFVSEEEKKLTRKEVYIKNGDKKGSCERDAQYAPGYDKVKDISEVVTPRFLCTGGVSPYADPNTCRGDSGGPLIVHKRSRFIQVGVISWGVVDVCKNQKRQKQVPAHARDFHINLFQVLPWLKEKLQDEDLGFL

koff [1]: 0.0036 s⁻¹ | kon [1]: 118000 M⁻¹ s⁻¹ | Kd [2]: 13 nM | koff [2]: 0.00405 s⁻¹ | kon [2]: 312000 M⁻¹ s⁻¹ | IC50 (read off the curve); lysis of rabbit red blood cells in 10% normal human serum [3]: ~80 nM | Kd [4]: 20 to 30 nM | Kd [5]: 1.17 nM | koff [6]: 0.00305 s⁻¹ | kon [6]: 2.2e+06 M⁻¹ s⁻¹ | Kd [7]: 22.4 nM | koff [7]: 0.00352 s⁻¹ | kon [7]: 157000 M⁻¹ s⁻¹ | Kd [8]: 1.5 nM | Kd [9]: ~24.9 nM | Kd [10]: ~1.2 nM | koff [11]: 0.00333 s⁻¹ | kon [11]: 2.84e+06 M⁻¹ s⁻¹
B1: TA106 Fab (humaneered anti-factor B Fab, expressed in E. coli) (Fab, V domains shown)
VH: QVQLVQSGAEVKKPGASVKVSCKASGYSFTDYYMTWVRQAPGQGLEWMGWINPNSGGTKYAQKFQGRVTMTRDTSISTAYMELSRLRSDDTAVYYCARGYYANSAWFAYWGQGTLVTVSS
VL: DIVMTQSPDSLAVSLGERATINCKSSQSLLNSSTSKNYLAWYQQKPGQPPKLLIYWASTRESGVPDRFSGSGSGTDFTLTISSLQAEDVAVYYCKQVYNLPWTFGQGTKLEIKR
notes: Fab made in E. coli by Xoma, not glycosylated; also called Fab TA106; TA106 wild type Fab
